Legend:
Test in all cases: cell-based or functional assay
[1] = target: HIV-1 Env of pseudovirus Q23.17 (HIV-1)
[2] = target: HIV-1 envelope of pseudovirus ZM247v1(Rev-) (HIV-1)
[3] = target: HIV-1 Env of pseudovirus 9004SS_A3_4 (HIV-1)
[4] = target: HIV-1 envelope of pseudovirus SC422661.8 (HIV-1)
[5] = target: HIV-1 envelope spike of pseudovirus SS1196.1 (HIV-1)
[6] = target: HIV-1 Env of pseudovirus 3365.v2.c2 (HIV-1)
[7] = target: HIV-1 envelope of pseudovirus CNE20 (HIV-1)
[8] = target: HIV-1 Env of pseudovirus X1193_c1 (HIV-1)
[9] = target: HIV-1 envelope of pseudovirus 6041.v3.c23 (HIV-1)
[10] = target: HIV-1 envelope spike of pseudovirus BaL.26 (HIV-1)
[11] = target: HIV-1 envelope of pseudovirus 6244_13_85_4576 (HIV-1)
[12] = target: HIV-1 envelope of pseudovirus QH0692.42 (HIV-1)
[13] = target: HIV-1 envelope of pseudovirus Ce704809221_1B3 (HIV-1)
[14] = target: HIV-1 envelope of pseudovirus ZM135M.PL10a (HIV-1)
[15] = target: HIV-1 envelope of pseudovirus 3817.v2.c59 (HIV-1)
[16] = target: HIV-1 Env of pseudovirus 231965.c01 (HIV-1)
[17] = target: HIV-1 Env of pseudovirus ZM233M.PB6 (HIV-1)
[18] = target: HIV-1 Env of pseudovirus 0815.v3.c3 (HIV-1)
[19] = target: HIV-1 Env of pseudovirus X2131_C1_85 (HIV-1)
[20] = target: HIV-1 Env of pseudovirus REJO4541.67 (HIV-1)
[21] = target: HIV-1 Env of pseudovirus CNE17 (HIV-1)
[22] = target: HIV-1 envelope of pseudovirus T250-4 (HIV-1)
[23] = target: HIV-1 envelope of pseudovirus Du156.12 (HIV-1)
[24] = target: HIV-1 Env of pseudovirus 191821_E6_1 (HIV-1)
[25] = target: HIV-1 envelope of pseudovirus 7030102001E5(Rev-) (HIV-1)
[26] = target: HIV-1 Env of pseudovirus HIV-0013095-2.11 (HIV-1)
[27] = target: HIV-1 envelope of pseudovirus MS208.A1 (HIV-1)
[28] = target: HIV-1 envelope spike of pseudovirus TRJO4551.58 (HIV-1)
[29] = target: HIV-1 Env of pseudovirus ZM247v1(Rev-) (HIV-1)
[30] = target: HIV-1 envelope of pseudovirus CAP45.2.00.G3 (HIV-1)
[31] = target: HIV-1 envelope of pseudovirus Ce1172_H1 (HIV-1)
[32] = target: HIV-1 Env of pseudovirus 6240_08_TA5_4622 (HIV-1)
[33] = target: HIV-1 Env of pseudovirus 6545.v4.c1 (HIV-1)
[34] = target: HIV-1 envelope of pseudovirus CNE52 (HIV-1)
[35] = target: HIV-1 Env of pseudovirus 6540.v4.c1 (HIV-1)
[36] = target: HIV-1 envelope of pseudovirus BF1266.431a (HIV-1)
[37] = target: HIV-1 envelope of pseudovirus WITO4160.33 (HIV-1)
[38] = target: HIV-1 Env of pseudovirus C4118.c09 (HIV-1)
[39] = target: HIV-1 Env of pseudovirus 6952.v1.c20 (HIV-1)
[40] = target: HIV-1 Env of pseudovirus 3016.v5.c45 (HIV-1)
[41] = target: HIV-1 Env of pseudovirus Ce2010_F5 (HIV-1)
[42] = target: HIV-1 envelope of pseudovirus ZM214M.PL15 (HIV-1)
[43] = target: HIV-1 Env of pseudovirus ZM249M.PL1 (HIV-1)
[44] = target: HIV-1 envelope of pseudovirus Ce1176_A3 (HIV-1)
[45] = target: HIV-1 Env of pseudovirus HIV-16845-2.22 (HIV-1)
[46] = target: HIV-1 Env of pseudovirus X1632_S2_B10 (HIV-1)
[47] = target: HIV-1 envelope spike of pseudovirus CAAN5342.A2 (HIV-1)
[48] = target: HIV-1 envelope of pseudovirus CNE30 (HIV-1)
[49] = target: HIV-1 envelope of pseudovirus 235-47 (HIV-1)

Chain of 10-1074 (antibody) (VH): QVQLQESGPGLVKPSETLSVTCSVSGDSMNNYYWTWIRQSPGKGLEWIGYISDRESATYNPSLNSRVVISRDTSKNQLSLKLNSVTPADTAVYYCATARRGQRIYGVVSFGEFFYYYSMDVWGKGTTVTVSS
Chain of 10-1074 (antibody) (V domain): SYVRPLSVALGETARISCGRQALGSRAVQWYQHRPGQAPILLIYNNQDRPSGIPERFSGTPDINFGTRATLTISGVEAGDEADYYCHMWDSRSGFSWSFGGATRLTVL

PGT121 (antibody)
IC80 (TZM-bl neutralization) [1]: 0.031 mg/L
IC50 (TZM-bl neutralization) [2]: 0.027 mg/L
IC80 (TZM-bl neutralization) [3]: 0.026 mg/L
IC50 (TZM-bl neutralization) [4]: 0.101 mg/L
IC50 (TZM-bl neutralization assay) [5]: 0.008 mg/L
IC80 (TZM-bl neutralization assay) [5]: 0.03 mg/L
IC80 (TZM-bl neutralization) [6]: 7.35 mg/L
IC50 (TZM-bl neutralization) [7]: 0.002 mg/L
IC80 (TZM-bl neutralization) [8]: 0.202 mg/L
IC50 (TZM-bl neutralization) [9]: > 50 mg/L
IC50 (TZM-bl neutralization assay) [10]: 0.021 mg/L
IC80 (TZM-bl neutralization assay) [10]: 0.081 mg/L
IC50 (TZM-bl neutralization) [11]: 0.249 mg/L
IC50 (TZM-bl neutralization) [12]: 1.04 mg/L
IC50 (TZM-bl neutralization) [13]: 0.098 mg/L
IC50 (TZM-bl neutralization) [14]: 0.576 mg/L
IC50 (TZM-bl neutralization) [15]: > 50 mg/L
IC80 (TZM-bl neutralization) [16]: > 50 mg/L
IC80 (TZM-bl neutralization) [17]: 8.98 mg/L
IC80 (TZM-bl neutralization) [18]: 0.105 mg/L
IC80 (TZM-bl neutralization) [19]: 0.058 mg/L
IC80 (TZM-bl neutralization) [20]: > 50 mg/L
IC80 (TZM-bl neutralization) [21]: > 50 mg/L
IC50 (TZM-bl neutralization) [22]: 0.001 mg/L
IC50 (TZM-bl neutralization) [23]: 0.007 mg/L
IC80 (TZM-bl neutralization) [24]: > 50 mg/L
IC50 (TZM-bl neutralization) [25]: 0.01 mg/L
IC80 (TZM-bl neutralization) [26]: > 50 mg/L
IC50 (TZM-bl neutralization) [27]: > 50 mg/L
IC50 (TZM-bl neutralization assay) [28]: 3.9 mg/L
IC80 (TZM-bl neutralization assay) [28]: 26.9 mg/L
IC80 (TZM-bl neutralization) [29]: 0.126 mg/L
IC50 (TZM-bl neutralization) [30]: 0.086 mg/L
IC50 (TZM-bl neutralization) [31]: 0.023 mg/L
IC80 (TZM-bl neutralization) [32]: 0.584 mg/L
IC80 (TZM-bl neutralization) [33]: > 50 mg/L
IC50 (TZM-bl neutralization) [34]: 3.74 mg/L
IC80 (TZM-bl neutralization) [35]: > 50 mg/L
IC50 (TZM-bl neutralization) [36]: > 50 mg/L
IC50 (TZM-bl neutralization) [37]: 0.459 mg/L
IC80 (TZM-bl neutralization) [38]: > 50 mg/L
IC80 (TZM-bl neutralization) [39]: 0.605 mg/L
IC80 (TZM-bl neutralization) [40]: > 50 mg/L
IC80 (TZM-bl neutralization) [41]: > 50 mg/L
IC50 (TZM-bl neutralization) [42]: 0.236 mg/L
IC80 (TZM-bl neutralization) [43]: > 50 mg/L
IC50 (TZM-bl neutralization) [44]: 0.017 mg/L
IC80 (TZM-bl neutralization) [45]: > 50 mg/L
IC80 (TZM-bl neutralization) [46]: > 50 mg/L
IC50 (TZM-bl neutralization assay) [47]: 0.013 mg/L
IC80 (TZM-bl neutralization assay) [47]: 0.056 mg/L
IC50 (TZM-bl neutralization) [48]: 0.101 mg/L
IC50 (TZM-bl neutralization) [49]: 0.332 mg/L

10-1074 (antibody)
IC80 (TZM-bl neutralization) [1]: 0.021 mg/L
IC50 (TZM-bl neutralization) [2]: 0.042 mg/L
IC80 (TZM-bl neutralization) [3]: 0.03 mg/L
IC50 (TZM-bl neutralization) [4]: 0.091 mg/L
IC50 (TZM-bl neutralization assay) [5]: 0.01 mg/L
IC80 (TZM-bl neutralization assay) [5]: 0.127 mg/L
IC80 (TZM-bl neutralization) [6]: 0.45 mg/L
IC50 (TZM-bl neutralization) [7]: < 0.001 mg/L
IC80 (TZM-bl neutralization) [8]: 0.475 mg/L
IC50 (TZM-bl neutralization) [9]: > 50 mg/L
IC50 (TZM-bl neutralization assay) [10]: 0.033 mg/L
IC80 (TZM-bl neutralization assay) [10]: 0.124 mg/L
IC50 (TZM-bl neutralization) [11]: 0.202 mg/L
IC50 (TZM-bl neutralization) [12]: 0.191 mg/L
IC50 (TZM-bl neutralization) [13]: 0.139 mg/L
IC50 (TZM-bl neutralization) [14]: 0.069 mg/L
IC50 (TZM-bl neutralization) [15]: 3.15 mg/L
IC80 (TZM-bl neutralization) [16]: > 50 mg/L
IC80 (TZM-bl neutralization) [17]: 0.349 mg/L
IC80 (TZM-bl neutralization) [18]: 0.138 mg/L
IC80 (TZM-bl neutralization) [19]: 0.064 mg/L
IC80 (TZM-bl neutralization) [20]: > 50 mg/L
IC80 (TZM-bl neutralization) [21]: 13.3 mg/L
IC50 (TZM-bl neutralization) [22]: < 0.001 mg/L
IC50 (TZM-bl neutralization) [23]: 0.015 mg/L
IC80 (TZM-bl neutralization) [24]: > 50 mg/L
IC50 (TZM-bl neutralization) [25]: 0.006 mg/L
IC80 (TZM-bl neutralization) [26]: > 50 mg/L
IC50 (TZM-bl neutralization) [27]: > 50 mg/L
IC50 (TZM-bl neutralization assay) [28]: 0.17 mg/L
IC80 (TZM-bl neutralization assay) [28]: 0.693 mg/L
IC80 (TZM-bl neutralization) [29]: 0.186 mg/L
IC50 (TZM-bl neutralization) [30]: > 50 mg/L
IC50 (TZM-bl neutralization) [31]: 0.047 mg/L
IC80 (TZM-bl neutralization) [32]: 0.306 mg/L
IC80 (TZM-bl neutralization) [33]: > 50 mg/L
IC50 (TZM-bl neutralization) [34]: 1.23 mg/L
IC80 (TZM-bl neutralization) [35]: > 50 mg/L
IC50 (TZM-bl neutralization) [36]: > 50 mg/L
IC50 (TZM-bl neutralization) [37]: 0.185 mg/L
IC80 (TZM-bl neutralization) [38]: > 50 mg/L
IC80 (TZM-bl neutralization) [39]: 0.138 mg/L
IC80 (TZM-bl neutralization) [40]: > 50 mg/L
IC80 (TZM-bl neutralization) [41]: > 50 mg/L
IC50 (TZM-bl neutralization) [42]: 0.174 mg/L
IC80 (TZM-bl neutralization) [43]: > 50 mg/L
IC50 (TZM-bl neutralization) [44]: 0.018 mg/L
IC80 (TZM-bl neutralization) [45]: 5.83 mg/L
IC80 (TZM-bl neutralization) [46]: > 50 mg/L
IC50 (TZM-bl neutralization assay) [47]: 0.007 mg/L
IC80 (TZM-bl neutralization assay) [47]: 0.044 mg/L
IC50 (TZM-bl neutralization) [48]: 0.363 mg/L
IC50 (TZM-bl neutralization) [49]: 0.05 mg/L

From patent US12338277
